Changes are numbered by the printed parent chain. Where two headings read alike, the source gives them in different places. Each block holds one binder with its values, some of them ahead of it.
Key:
Assay in all cases: ITC
[1] = biological target: T1, TBK1 CTD V700Q (human, UniProt Q9UHD2 677-729, V700Q)
T1 sequence: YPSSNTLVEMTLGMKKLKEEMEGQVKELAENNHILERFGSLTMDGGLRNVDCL

[2] = biological target: T2, TBK1 CTD(E696K) (human, UniProt Q9UHD2 677-729, E696K)
T2 sequence: T1 sequence with E20K, Q24V

[3] = biological target: T1, TBK1 CTD V700Q; remark: listed apart in the source
[4] = biological target: T2, TBK1 CTD(E696K); remark: listed apart in the source
[5] = biological target: T3, OPTN(26–119) E50K (human, UniProt Q96CV9 26-119, E50K)
Target sequence in this assay (Q96CV9 26-119 E50K): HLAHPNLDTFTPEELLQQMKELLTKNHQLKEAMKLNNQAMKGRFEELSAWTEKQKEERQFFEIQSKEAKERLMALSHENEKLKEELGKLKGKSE

[6] = biological target: T3, OPTN(26–119) E50K; remark: listed apart in the source

- Kd [1]: 6060 nM
- Kd [2]: 660 nM
- Kd [3]: 6060 nM
- Kd [4]: 660 nM
Binder: SSDNMQHAYWELKREMSNLHLVTQVQAELLRKLKTSTAIK (domain or fragment) [NAP1 TBD (residues 215–254)]

- Kd [5]: 100 nM
- Kd [6]: 100 nM
B1: TBK1 CTD (residues 677–729) (domain or fragment)
chain: T1 sequence with Q24V

Reference: publication PMC5027247 (2016)
